Here are results for 41 sequences from the nanobody polyreactivity screen of Harvey et al. (2022).

This series can be described thus: yeast display, Sf9 membrane polyspecificity reagent, FACS + sequencing; frameworks hold sequencing errors. In short, it runs like this: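 Genes from sorted yeast were amplified by colony PCR, read by MiSeq 2 × 250 sequencing and filtered on CDR length. These cells carried a synthetic nanobody library in Saccharomyces cerevisiae BJ5465 and were sorted by FACS into low and high (top ~1%) gates on anti-HA and streptavidin fluorescence. Polyreactivity is labelled according to the gate of origin.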
As to “QFQLVESGGGLVQAGGSLRLSCAASGYIFVRYTMGWYRQAPGKERELVAAISWGGGSTYYADSVKGLFTISRDNAKNTVYLQMNSLKPEDTAVYYCNNRYIQLYDYWGQGTQVTVSS”, the “polyreactivity (PSR sort gate)” value is given as “low polyreactivity”.
The same measure for “QFQLVESGGGLVQAGGSLRLSCAASGYIFYGYVMGWYRQAPGKERELVAGITYSGGGGTHYADSVNGRFTISRDNAKNTVYLQMNSLKPEDTAVYYCAKADPQLNRTYYSYGMDYWGHGTQVTVSS”: “low polyreactivity”; for “QFQLVESGGGLVQAGGSLRLSCAASGYTFRYYSMGWYRQATGKERELVAAISRSGGSTYYADSVKGRFTISRDYAKNTVYLQMYSLKPEDTAVYYCAADYSYRTRGNRYRLDYWGQGTQVTVSS”: “high polyreactivity”.
For “QFQLVESGGGLVQAGGSLRLSCAASGYTLEYNAMGWYRQAPGKDRELGARIRWSGSSTYYADSVKGRFTISRDNAKNTVYLQMNSLKPEDTAVYYCATRYRRWKYDYWGQGTQVTVSS”, the “polyreactivity (PSR sort gate)” value is listed as “high polyreactivity”.
With “QFQLVESGGGLVQAGGSLRLSCAASRYTFTLYAMGCYRQAPGKVRELVAAISWSSGSTYYADSVKGRFTISRDNEKNTVYLQMNSLKPEDTAVYYCNARRFGLTQYYYWGQGTQVTVSS”, the “polyreactivity (PSR sort gate)” value is recorded as “low polyreactivity”.
Consider “QFQLVESGGGLVQAGGSLRLSCAATGRIFYKYAMGWYRQAPRKETELVAAISSSGGRTYYADSVKGRFTISRDNAKNTVYLQMNSLKPEDSAVYYCGARIHYPSLPYDYWGQGTQVTVSS”, for which the “polyreactivity (PSR sort gate)” value is given as “low polyreactivity”.
As to “QFQLVESGGGLVQAGGSLRLSCAPSGGTFGSNAMGWYRQAPGKERELVAAISTTGGTTYYADSVKGRFTISRDNAKNTVYLQMNSLKPEDTAVYYCAKDGYVYGDWYTYAYVYWGQGTQVTVSS”, the “polyreactivity (PSR sort gate)” value is “low polyreactivity”.
For “QFQLVESGGGLVQAGGSLRLSCPAYGSNLSRYAMGWYRQSPGKVRELVATITRRGGSTFYADSVKGRFTISRDNAKNTVYLQMNSLKPDDTADYYCAVGRLFWGQGTQVTVSS”, the “polyreactivity (PSR sort gate)” value is listed as “low polyreactivity”.
The same measure for “QFQLVESGGGLVQAGGSLRLSSAASGFIFAHNAMGWYRQAPGKERELVDAITSSGGSTYYADSVKGRFSISRDNAKNTVYLQMNSLKPEDTAVYYCNAYTYARRGYDYWGQGTQVTVSS”: “high polyreactivity”; for “QFQLVESGGGLVQAGGSLRLSSAASGRTFLSYTMVWYRQAPGKERQFVAAITTSGGSTNYADSVKGRFTISRDNAKNTVYLQMNSLKAEDTAVYYCADEWSVYFYDPRSDYWGQGNQVTVSS”: “high polyreactivity”.
In the case of “QFQLVESGGGLVQAGGSLRLTCAASGSIFLWYAMGWYRQAPGKERELVAVITSSGGTTYYADSVKGRFTISRDNAKNTVYLQMNCLKPADTAVYYCAADFYRHPPGSLTKLYYYWGQGTQVTVSS” it was “low polyreactivity”.
In the case of “QFQLVESGGGLVQAGGTLRLSCPATGLIFAYNTMGWYRHAPGKERELVAGITSGGSTYYADSVKGRFTISRDNAKNTVYLHLNSLKPEDSAVYYCAAAYRNWSVSFGYWGQGTQVTVSS” it was “high polyreactivity”; in that of “QFQLVESGGGLVQAGVSLRLSCAASGRIFSHYAMGWYRQAPGKERELVAASSSGGITYYADSVKGRFTISLDNAKNTVYLQMNCQKPEDTAVYYCAAVRRRGTTYDYWGQGTQVTVSS”, “high polyreactivity”; in that of “QFQLVESGGGLVQAVGSLRLSCAASGITFYTYAMGWYRHAPGKESDFVSAITRSGGSTYYADSVKGRFTFSRDNAKNTVYLQMIILKPEDTAVYYCAVDIYFWSYGWWGPYDYWGQGTQVTVSS”, “low polyreactivity”.
On to “QFQLVESGGGLVQEGGSLRLSCASSGRTFVSNAMGWYRQAPGKERELVAAISRRSGSTYYADSVKGRFTISRDNAKNTVYLQMNSLKPEDTAVYYCGAVLTRYGYDYWGQGTQVTVSS”, for which the “polyreactivity (PSR sort gate)” value is recorded as “high polyreactivity”.
In the case of “QFQLVESGGGSVQAGGSLRLSCAASGSTFDYNMGWYRQAPGKERELVATIRSDGRTNYADSVKGRFTISRDNAKNTVYLQMNSLKPEDTAVYYCAADVYAYVDDFGGYDYWGQGTQVTVSS” it was “low polyreactivity”; in that of “QFQLVESGGGVVQAGGRLRLSCAASGSNFPRYAMGWYIQAPGKERELVAAISSSGGDTYYADSVKGLYTISRDNAKNTVYLQMNSLKPEDTAVYYCAALGAFPSLEFDYCGQGTQVTVSS”, “low polyreactivity”; in that of “QFQLVESGRGLVQAGGSLRLSCAASGRTFSAYAIGWNSQAPVKQRELVAAITRGGSTNYADSVKGRFTISRDNAMNTLYLQMNRLKPEDTAVYYCAARRSSRKDFGYWGQGTQVTVSS”, “high polyreactivity”.
With “QFQLVESGRGLVQAGVSLRLSCASSGFTFILYAIGCYRQATGKERELVAGISNGGSTYYADSVKGRFTISRDNAKNTVYFQMNSLKPEDTAVDYCNRDLTFYLYVSGNYFGQGTQVTVSS”, the “polyreactivity (PSR sort gate)” value is given as “low polyreactivity”.
In the case of “QFQLVESGRGLVQAVGSHRLRCAASGSILLKYAMGWYRQATGKEMELVAAITYRGASTHYADSVKGRFTISRDNAKNTVYLQMNSLKPEDTAVYYCAARGWVYYASEMDYWGQGTQVTVSS”, the “polyreactivity (PSR sort gate)” value is “low polyreactivity”.
Consider “QFQLVESRGGLVQAGGSLRLNCASSGSIFYSYAIGWYRQAPGKERELVAAITRGGSTYYADSVKGRFTISRDNAKNTVYLQMNSLKREDTAVYYCAAEFYSYKYPDYDYWGQGTQVTVSS”, for which the “polyreactivity (PSR sort gate)” value is “low polyreactivity”.
In the case of “QFQLVESVGGLVQAGGSLRISCAASGIIFYSYALGWYREAPGKERELVATISFSGDNTYYADSVKGRFTISRDNAKNTVYLQMNSLKPEDTAVYYCAKDLGYRGRYNYWGQGTQVTVSS” it was “low polyreactivity”; in that of “QFQLVESVGGLVQAGGSLRLSCAASGFTFTAYAMGWYRQAPGTERELVAAISSGGSTYYADSVKGRFTISRDNAKNTVYLQMNSLKPEDTAVYYCAAVGVYTVKREYWGQGTQVTVSS”, “low polyreactivity”.
The same measure for “QFQLVESVGGLVQAGGSLRLSCAASGITFPANAMGWYRQAPGKERELVAAISSSGGSTYYADSVKGRFTISRDNAKNTVYLQMNSLKPEDTAVYYCAAYYGPSRSLYYYWGQGTQVTVSS”: “high polyreactivity”; for “QFQLVESVGGLVQAGGSLRLSCAASGRTFGNYAMGWYRQAPGKERELVAAISRSGGSTSYADSVKGRFTISRDNAKNTVYLQMNSLKPVDTAVYYCNAYFRGPRDYQYDYWGQGTQVTVSS”: “high polyreactivity”; for “QFQQVESGGGLVQAGGSLRLSCAATGSIFSYTMGWYRQAPGKERELVAAITSGGITYYADSVKGRFTISRDNAKNTVYLQMNSLKPEDSAVYYCNAYYPYGLASFYYWGQGTQVTVSS”: “low polyreactivity”.
In the case of “QFQRVESGGGLVQAGGSLRLTCAASGIIFVYNAMGWFRQATGKERELVAAINWRGDGTYYADSVKGRFTISRDNAKNTVYLQMNSLKQEDTAVYYCNAVRFRPNSHYRPVGYDYWGQGTQVTVSS” it was “low polyreactivity”; in that of “QGHLEESGGGLVQAGGSLRISCAASGRILPYYVMGGYRPAPGKERELVATIYWSGGSTYYADSVKGRFTISRDNAKNNVNLQINSLKPEDTAVYYSNAAPSDDYDYWGQGTQVTVSS”, “low polyreactivity”; in that of “QGHLVESGGGLVQAGGSLRLSCAASGRIIRWNAMGWYRQGPGKERELFAGISGSGGSTYYADSVKGRFTISRDNAKNSVYLQMNSLKPEDTAVYYCNADADSSTYVGILQRLDYWGQGTQVTVSS”, “low polyreactivity”.
For the sequence “QGKLVESGGGLVQAGGSLRLSCAASGLTFGSNTMGGYRQAPGKERELVAAITSNGGSTYYADSVKGRFTISRDNAKNTVYVQMNSLKPEDTAVYYCAARSYDGYYRYYYWGQGTQVTVSS”, the “polyreactivity (PSR sort gate)” value was “low polyreactivity”.
For “QGQIVESGGGLVQAGGSLRLSCAASGFTFRRYAMGWYRQAPGKEREVVAGITSSGGSTYYADSVKGRFTSSRDKAKNPVYLQMNSLKPEDTAVYYCAAEWVYTSFDYWGQGTQVSVSS”, the “polyreactivity (PSR sort gate)” value was “high polyreactivity”.
In the case of “QGQLGESGGGLVQAGGSLRLSCAASGSNFSSNAMGWYRQAPWKERELVAAISSGGSTNYADSVKGRFTISRDNAKNTVYLQMNSLKPEDTAVYYCAADTSTGVYTPYAFEFDWGQGTQVTVSS” it was “low polyreactivity”; in that of “QGQLVDSGGGVVQAGGSLRLSCAASGRTFPVYAMGWYRQAPGKERELVAAISSRGGSTYYADSVKGRFTISRDNAKNTVYLQMNSLKPEDTAVYYCAARMPGPRRFTMDYWGQGTQVTVSS”, “high polyreactivity”; in that of “QGQLVDSGGGVVQAGGSLRLSSAASGRSFGRNVMGWYRPAPGKERELVAAIRYSSGGTYYADSVKGRFTISRDYAKNTVDLQMNSLKPEDTAVYYCAARFFRGYRGGDWGQGTQVTVSS”, “high polyreactivity”.
For “QGQLVESGGALFQAGGSLSLSCAASGRNFKRYAMGRYRQAPGKERELVAAIRTSDGLTYYADSVKGRFTISRDNAENTDYLQMNSLKPEETSVYYCADGYPYYHVYGYGYWGQGTQVTVSS”, the “polyreactivity (PSR sort gate)” value is recorded as “low polyreactivity”.
In the case of “QGQLVESGGCLVQEGGSLRLSCAASGRIFLYYTMGWYRQAPGKERELVAAITRSGGSTYYADSVKGRFTISRDNAKNTVYLQMNSLQPVDTAVSYCNRAYVRYVPMNYWGQGTLVTVSS” it was “high polyreactivity”; in that of “QGQLVESGGGLVQAGGRLRLSCAAAGGIFYSNRMGWYRQATGKEREMVAAITGGDITDYADSVKGRFTISRDNAKNTDYLQMNSLKPEDTAVYYCAGESNPPDYGPRFGSWGQGTQVSVSS”, “low polyreactivity”.
Turning to “QGQLVESGGGLVQAGGRLRLSCAASGRIFPNNAMGWYRQAPGKERELVAAISRSGGRTYYADSVKGRFTISRDNAKNTVYLQMNSLKPEDTAVYYCAARSWGGYDSRGYWGQGTQVTVSS”, the “polyreactivity (PSR sort gate)” value is given as “high polyreactivity”.
Regarding “QGQLVESGGGLVQAGGSLRFSCAASGSTFRSYALGGYRQAPGKEWELVAAISGDGSTNYADSVKGRFTISRDNAKNPVYLQMNSLKPEDTAVYYCAKDPGYPAPYYDYYYWGQGTKVTVSS”, the “polyreactivity (PSR sort gate)” value was “low polyreactivity”.
Regarding “QGQLVESGGGLVQAGGSLRLRCAASGRTFYTYAMGWYRQAPGKERELVATITSGGSTYADSVKGRFTISRDNAKNTVYLQMNSLKPEDTAVYYCARGYYKPSVGKSKRVGGNYWGQGTQVTVSS”, the “polyreactivity (PSR sort gate)” value is recorded as “high polyreactivity”.
The same measure for “QGQLVESGGGLVQAGGSLRLSCAASGFIFRNYAMGWYRQAPGKERELVAAISRGGSTYYADSVKGRFTISRDNAKNTVYLQMNSLKPEDTAVYYCAADASTYYGTQWASYYYWGQGTQVTVSS”: “high polyreactivity”.
